For 3 substances, EC50 and IC50 results are on record in article PMC3617124.

Targets include BAKΔC; BFL-1/A1ΔC; BCL-XLΔC.
Holding throughout (experiment): fluorescence polarisation
For orientation: Polarisation of emitted light reports the rotation of a fluorescent probe.

For assay [1], the target named is BAX (recombinant, tagless, full-length) (human) (UniProt Q07812).
Assay [2] addresses MCL-1ΔNΔC (residues 172–327) (UniProt Q07820).

MCL-1ΔNΔC (residues 172–327), sequence (Q07820 172-327, stated change not applied): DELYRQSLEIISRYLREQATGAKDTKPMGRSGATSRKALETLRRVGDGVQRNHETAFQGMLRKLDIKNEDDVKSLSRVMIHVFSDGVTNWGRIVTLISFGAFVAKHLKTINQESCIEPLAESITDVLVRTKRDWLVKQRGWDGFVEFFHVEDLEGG
BAX (recombinant, tagless, full-length) (human), sequence (Q07812 whole entry, the tested form may be a part): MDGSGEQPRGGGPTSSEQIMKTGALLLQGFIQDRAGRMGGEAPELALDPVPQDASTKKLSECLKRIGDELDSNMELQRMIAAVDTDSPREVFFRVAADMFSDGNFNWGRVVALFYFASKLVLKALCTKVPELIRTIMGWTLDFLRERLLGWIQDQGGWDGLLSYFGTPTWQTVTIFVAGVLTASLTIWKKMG
BCL-XLΔC, sequence (Q07817 1-209, stated change not applied): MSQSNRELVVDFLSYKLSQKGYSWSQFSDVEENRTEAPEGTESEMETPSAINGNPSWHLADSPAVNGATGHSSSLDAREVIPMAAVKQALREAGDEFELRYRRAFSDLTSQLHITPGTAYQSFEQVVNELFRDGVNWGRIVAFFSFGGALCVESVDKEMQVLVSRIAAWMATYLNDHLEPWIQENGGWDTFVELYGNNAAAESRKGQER

Consider “FITC-BIM SAHB (fluoresceinated stabilized α-helix of BCL-2 domain modeled after BIM BH3) (peptide)”, for which the EC50 (in general, the concentration that produces a half-maximal response) with BAKΔC came to 173 nM; in assay [1], 283 nM; in assay [2], 19.8 nM.
In the case of “N-terminally acetylated BIM SAHB (peptide; other documents disagree on this pair)”, in the assay with BFL-1/A1ΔC, the 50% inhibitory concentration (IC50) (usually the midpoint of a concentration-inhibition curve) is 603 nM.
For the substance “N-terminally acetylated BIM SAHB (peptide)”, the IC50 came out at 572 nM with BCL-XLΔC, 827 nM with BAKΔC, 314 nM in assay [1] and 136 nM in assay [2].
